Experimental findings from publication doi:10.1101/2021.04.15.439997 (bioRxiv, 2021) are described below.

The series concerns the molecule itself. Nature of the series: SEC-MALS.

B1: Strep-tagged glucose-6-phosphate dehydrogenase (G6PDH) from Synechocystis (enzyme)
chain: not shown
Usually stoichiometry N stands for the number of molecules, sites or subunits per partner or assembly. Take B1: the “stoichiometry N” value was found to be 4.
